We go through one protein from patent US20060074081A1 (Pfizer, published 2006).

This data set deals with the molecule itself. The experiment in a line: size-exclusion chromatography of the PR-LBD/tanaproget complex. For orientation: Size exclusion chromatography separates by hydrodynamic size, large species first.

B1: Human progesterone receptor ligand binding domain (PR-LBD), polypeptide following thrombin cleavage of the GST fusion (receptor)
chain: GSPGQDIQLIPPLINLLMSIEPDVIYAGHDNTKPDTSSSLLTSLNQLGERQLLSVVKWSKSLPGFRNLHIDDQITLIQYSWMSLMVFGLGWRSYKHVSGQMLYFAPDLILNEQRMKESSFYSLCLTMWQIPQEFVKLQVSQEEFLCMKVLLLLNTIPLEGLRSQTQFEEMRSSYIRELIKAIGLRQKGVVSSSQRFYQLTKLLDNLHDLVKQLHLYCLNTFIQSRALSVEFPEMMSEVIAAQLPKILAGMVKPLLFHKK
notes: In the size-exclusion run and in the crystal each chain carried the small molecule tanaproget; also called human PR-LBD; PR-LBD (675-933)
In the case of B1, the binding result is reported as “binds”.
